{"source": "patent US20260266848A1", "about": "“COMPOSITIONS AND METHODS FOR DIAGNOSING AND TREATING DYSTONIA” (Duke University, priority 2023, published 2026)", "data": [{"test_system": "DYT1 patient plasma derived EVs", "assay": "Plasma-derived EV proteomics (ExoQuick ULTRA, DIA LC/MS/MS), DYT1 vs Healthy Controls", "design": "species or system human", "details": "Hs. Plasma EVs (DYT1/WT); significance of genotype difference", "procedure": "Data was obtained for extracellular vesicles using previously acquired samples. The ExoQuick® ULTRA EV Isolation System was used to fractionate and enrich EVs from plasma. Isolated plasma EV samples were then submitted to proteomic analysis by the Duke Proteomics and Metabolomics Core Facility (DPMCF). At the DPMCF, quantitative (LC/MS/MS) was performed on 500 ng of each sample, using an EvoSep One UPLC system coupled to a Thermo Orbitrap Astral high-resolution accurate mass tandem mass spectrometer (Thermo). Briefly, the sample was eluted directly from an Evotip which was subjected to a low organic wash and then subjected to an analytical separation using a 1.7 μm EvoSep 150 um ID×15 cm endurance (EveoSep) column running an SPD30 gradient from approximately 5 to 30% acetonitrile with 0.1% formic acid with a column temperature of 50 C. Data collection on the Orbitrap Astral mass spectrometer was performed in a data-independent acquisition (DIA) mode of acquisition with a r=240,000 (@m/z 200) full MS scan from m/z 380-980 with a target AGC value of 4e5 ions. Fixed DIA, windows of 4 m/z from m/z 380 to 980 DIA MS/MS scans were acquired in the Astral with a target AGC value of 5e4 and a max fill time of 6 ms. HCD collision energy setting of 27% was used for all MS2 scans.", "values": [{"molecule": "BZW2 (protein, UniProt Q9Y6E2 1-419, looked up) eIF5-mimic protein 1: MNKHQKPVLTGQRFKTRKRDEKEKFEPTVFRDTLVQGLNEAGDDLEAVAKFLDSTGSRLDYRRYADTLFDILVAGSMLAPGGTRIDDGDKTKMTNHCVFSANEDHETIRNYAQVFNKLIRRYKYLEKAFEDEMKKLLLFLKAFSETEQTKLAMLSGILLGNGTLPATILTSLFTDSLVKEGIAASFAVKLFKAWMAEKDANSVTSSLRKANLDKRLLELFPVNRQSVDHFAKYFTDAGLKELSDFLRVQQSLGTRKELQKELQERLSQECPIKEVVLYVKEEMKRNDLPETAVIGLLWTCIMNAVEWNKKEELVAEQALKHLKQYAPLLAVFSSQGQSELILLQKVQEYCYDNIHFMKAFQKIVVLFYKADVLSEEAILKWYKEAHVAKGKSVFLDQMKKFVEWLQNAEEESESEGEEN", "-LogP": 1.385}, {"molecule": "MRC2 (protein, UniProt Q9UBG0 31-1479, looked up) C-type mannose receptor 2: GAPGDAALPEPNVFLIFSHGLQGCLEAQGGQVRVTPACNTSLPAQRWKWVSRNRLFNLGTMQCLGTGWPGTNTTASLGMYECDREALNLRWHCRTLGDQLSLLLGARTSNISKPGTLERGDQTRSGQWRIYGSEEDLCALPYHEVYTIQGNSHGKPCTIPFKYDNQWFHGCTSTGREDGHLWCATTQDYGKDERWGFCPIKSNDCETFWDKDQLTDSCYQFNFQSTLSWREAWASCEQQGADLLSITEIHEQTYINGLLTGYSSTLWIGLNDLDTSGGWQWSDNSPLKYLNWESDQPDNPSEENCGVIRTESSGGWQNRDCSIALPYVCKKKPNATAEPTPPDRWANVKVECEPSWQPFQGHCYRLQAEKRSWQESKKACLRGGGDLVSIHSMAELEFITKQIKQEVEELWIGLNDLKLQMNFEWSDGSLVSFTHWHPFEPNNFRDSLEDCVTIWGPEGRWNDSPCNQSLPSICKKAGQLSQGAAEEDHGCRKGWTWHSPSCYWLGEDQVTYSEARRLCTDHGSQLVTITNRFEQAFVSSLIYNWEGEYFWTALQDLNSTGSFFWLSGDEVMYTHWNRDQPGYSRGGCVALATGSAMGLWEVKNCTSFRARYICRQSLGTPVTPELPGPDPTPSLTGSCPQGWASDTKLRYCYKVFSSERLQDKKSWVQAQGACQELGAQLLSLASYEEEHFVANMLNKIFGESEPEIHEQHWFWIGLNRRDPRGGQSWRWSDGVGFSYHNFDRSRHDDDDIRGCAVLDLASLQWVAMQCDTQLDWICKIPRGTDVREPDDSPQGRREWLRFQEAEYKFFEHHSTWAQAQRICTWFQAELTSVHSQAELDFLSHNLQKFSRAQEQHWWIGLHTSESDGRFRWTDGSIINFISWAPGKPRPVGKDKKCVYMTASREDWGDQRCLTALPYICKRSNVTKETQPPDLPTTALGGCPSDWIQFLNKCFQVQGQEPQSRVKWSEAQFSCEQQEAQLVTITNPLEQAFITASLPNVTFDLWIGLHASQRDFQWVEQEPLMYANWAPGEPSGPSPAPSGNKPTSCAVVLHSPSAHFTGRWDDRSCTEETHGFICQKGTDPSLSPSPAALPPAPGTELSYLNGTFRLLQKPLRWHDALLLCESRNASLAYVPDPYTQAFLTQAARGLRTPLWIGLAGEEGSRRYSWVSEEPLNYVGWQDGEPQQPGGCTYVDVDGAWRTTSCDTKLQGAVCGVSSGPPPPRRISYHGSCPQGLADSAWIPFREHCYSFHMELLLGHKEARQRCQRAGGAVLSILDEMENVFVWEHLQSYEGQSRGAWLGMNFNPKGGTLVWQDNTAVNYSNWGPPGLGPSMLSHNSCYWIQSNSGLWRPGACTNITMGVVCKLPRAEQSSFSPSALPENPAALVVVLMAVLLLLALLTAALILYRRRQSIERGAFEGARYSRSSSSPTEATEKNILVSDMEMNEQQE", "-LogP": 1.456}, {"molecule": "LRRC59 (protein, UniProt Q96AG4 1-307, looked up) Leucine-rich …: MTKAGSKGGNLRDKLDGNELDLSLSDLNEVPVKELAALPKATILDLSCNKLTTLPSDFCGLTHLVKLDLSKNKLQQLPADFGRLVNLQHLDLLNNKLVTLPVSFAQLKNLKWLDLKDNPLDPVLAKVAGDCLDEKQCKQCANKVLQHMKAVQADQERERQRRLEVEREAEKKREAKQRAKEAQERELRKREKAEEKERRRKEYDALKAAKREQEKKPKKEANQAPKSKSGSRPRKPPPRKHTRSWAVLKLLLLLLLFGVAGGLVACRVTELQQQPLCTSVNTIYDNAVQGLRRHEILQWVLQTDSQQ", "-LogP": 1.584}, {"molecule": "WDR26 (protein, UniProt Q9H7D7 1-661, looked up) WD repeat-containing protein …: MQANGAGGGGGGGGGGGGGGGGGGGQGQTPELACLSAQNGESSPSSSSSAGDLAHANGLLPSAPSAASNNSNSLNVNNGVPGGAAAASSATVAAASATTAASSSLATPELGSSLKKKKRLSQSDEDVIRLIGQHLNGLGLNQTVDLLMQESGCRLEHPSATKFRNHVMEGDWDKAENDLNELKPLVHSPHAIVVRGALEISQTLLGIIVRMKFLLLQQKYLEYLEDGKVLEALQVLRCELTPLKYNTERIHVLSGYLMCSHAEDLRAKAEWEGKGTASRSKLLDKLQTYLPPSVMLPPRRLQTLLRQAVELQRDRCLYHNTKLDNNLDSVSLLIDHVCSRRQFPCYTQQILTEHCNEVWFCKFSNDGTKLATGSKDTTVIIWQVDPDTHLLKLLKTLEGHAYGVSYIAWSPDDNYLVACGPDDCSELWLWNVQTGELRTKMSQSHEDSLTSVAWNPDGKRFVTGGQRGQFYQCDLDGNLLDSWEGVRVQCLWCLSDGKTVLASDTHQRIRGYNFEDLTDRNIVQEDHPIMSFTISKNGRLALLNVATQGVHLWDLQDRVLVRKYQGVTQGFYTIHSCFGGHNEDFIASGSEDHKVYIWHKRSELPIAELTGHTRTVNCVSWNPQIPSMMASASDDGTVRIWGPAPFIDHQNIEEECSSMDS", "-LogP": 1.772}, {"molecule": "RAP2B (protein, UniProt P61225 1-180, looked up) Ras-related protein Rap-2b: MREYKVVVLGSGGVGKSALTVQFVTGSFIEKYDPTIEDFYRKEIEVDSSPSVLEILDTAGTEQFASMRDLYIKNGQGFILVYSLVNQQSFQDIKPMRDQIIRVKRYERVPMILVGNKVDLEGEREVSYGEGKALAEEWSCPFMETSAKNKASVDELFAEIVRQMNYAAQPNGDEGCCSAC", "-LogP": 2.656}, {"molecule": "ACAA1 (protein, UniProt P09110 27-424, looked up) 3-ketoacyl-CoA thiolase, …: LSGAPQASAADVVVVHGRRTAICRAGRGGFKDTTPDELLSAVMTAVLKDVNLRPEQLGDICVGNVLQPGAGAIMARIAQFLSDIPETVPLSTVNRQCSSGLQAVASIAGGIRNGSYDIGMACGVESMSLADRGNPGNITSRLMEKEKARDCLIPMGITSENVAERFGISREKQDTFALASQQKAARAQSKGCFQAEIVPVTTTVHDDKGTKRSITVTQDEGIRPSTTMEGLAKLKPAFKKDGSTTAGNSSQVSDGAAAILLARRSKAEELGLPILGVLRSYAVVGVPPDIMGIGPAYAIPVALQKAGLTVSDVDIFEINEAFASQAAYCVEKLRLPPEKVNPLGGAVALGHPLGCTGARQVITLLNELKRRGKRAYGVVSMCIGTGMGAAAVFEYPGN", "-LogP": 1.434}, {"molecule": "NDNF (protein, UniProt Q8TB73 20-568, looked up) Protein NDNF: QKLPTRDEELFQMQIRDKAFFHDSSVIPDGAEISSYLFRDTPKRYFFVVEEDNTPLSVTVTPCDAPLEWKLSLQELPEDRSGEGSGDLEPLEQQKQQIINEEGTELFSYKGNDVEYFISSSSPSGLYQLDLLSTEKDTHFKVYATTTPESDQPYPELPYDPRVDVTSLGRTTVTLAWKPSPTASLLKQPIQYCVVINKEHNFKSLCAVEAKLSADDAFMMAPKPGLDFSPFDFAHFGFPSDNSGKERSFQAKPSPKLGRHVYSRPKVDIQKICIGNKNIFTVSDLKPDTQYYFDVFVVNINSNMSTAYVGTFARTKEEAKQKTVELKDGKITDVFVKRKGAKFLRFAPVSSHQKVTFFIHSCLDAVQIQVRRDGKLLLSQNVEGIQQFQLRGKPKAKYLVRLKGNKKGASMLKILATTRPTKQSFPSLPEDTRIKAFDKLRTCSSATVAWLGTQERNKFCIYKKEVDDNYNEDQKKREQNQCLGPDIRKKSEKVLCKYFHSQNLQKAVTTETIKGLQPGKSYLLDVYVIGHGGHSVKYQSKVVKTRKFC", "-LogP": 1.312}, {"molecule": "LIPG (protein, UniProt Q9Y5X9 21-500, looked up) Endothelial lipase: SPVPFGPEGRLEDKLHKPKATQTEVKPSVRFNLRTSKDPEHEGCYLSVGHSQPLEDCSFNMTAKTFFIIHGWTMSGIFENWLHKLVSALHTREKDANVVVVDWLPLAHQLYTDAVNNTRVVGHSIARMLDWLQEKDDFSLGNVHLIGYSLGAHVAGYAGNFVKGTVGRITGLDPAGPMFEGADIHKRLSPDDADFVDVLHTYTRSFGLSIGIQMPVGHIDIYPNGGDFQPGCGLNDVLGSIAYGTITEVVKCEHERAVHLFVDSLVNQDKPSFAFQCTDSNRFKKGICLSCRKNRCNSIGYNAKKMRNKRNSKMYLKTRAGMPFRVYHYQMKIHVFSYKNMGEIEPTFYVTLYGTNADSQTLPLEIVERIEQNATNTFLVYTEEDLGDLLKIQLTWEGASQSWYNLWKEFRSYLSQPRNPGRELNIRRIRVKSGETQRKLTFCTEDPENTSISPGRELWFRKCRDGWRMKNETSPTVELP", "-LogP": 1.303}, {"molecule": "SLC2A1 (protein, UniProt P11166 1-492, looked up) Solute carrier family 2, …: MEPSSKKLTGRLMLAVGGAVLGSLQFGYNTGVINAPQKVIEEFYNQTWVHRYGESILPTTLTTLWSLSVAIFSVGGMIGSFSVGLFVNRFGRRNSMLMMNLLAFVSAVLMGFSKLGKSFEMLILGRFIIGVYCGLTTGFVPMYVGEVSPTALRGALGTLHQLGIVVGILIAQVFGLDSIMGNKDLWPLLLSIIFIPALLQCIVLPFCPESPRFLLINRNEENRAKSVLKKLRGTADVTHDLQEMKEESRQMMREKKVTILELFRSPAYRQPILIAVVLQLSQQLSGINAVFYYSTSIFEKAGVQQPVYATIGSGIVNTAFTVVSLFVVERAGRRTLHLIGLAGMAGCAILMTIALALLEQLPWMSYLSIVAIFGFVAFFEVGPGPIPWFIVAELFSQGPRPAAIAVAGFSNWTSNFIVGMCFQYVEQLCGPYVFIIFTVLLVLFFIFTYFKVPETKGRTFDEIASGFRQGGASQSDKTPEELFHPLGADSQV", "-LogP": 1.635}, {"molecule": "PRPSAP2 (protein, UniProt O60256 1-369, looked up) Phosphoribosyl pyrophosphate …: MFCVTPPELETKMNITKGGLVLFSANSNSSCMELSKKIAERLGVEMGKVQVYQEPNRETRVQIQESVRGKDVFIIQTVSKDVNTTIMELLIMVYACKTSCAKSIIGVIPYFPYSKQCKMRKRGSIVSKLLASMMCKAGLTHLITMDLHQKEIQGFFNIPVDNLRASPFLLQYIQEEIPDYRNAVIVAKSPASAKRAQSFAERLRLGIAVIHGEAQDAESDLVDGRHSPPMVRSVAAIHPSLEIPMLIPKEKPPITVVGDVGGRIAIIVDDIIDDVDSFLAAAETLKERGAYKIFVMATHGLLSSDAPRRIEESAIDEVVVTNTIPHEVQKLQCPKIKTVDISMILSEAIRRIHNGESMSYLFRNIGLDD", "-LogP": 1.629}]}]}
